According to publication PMC12557607, “The mitochondrial disulphide relay substrate FAM136A safeguards IMS proteostasis and cellular fitness” (Redox Biology, 2025):

Molecular target: the molecule itself
Assay: SEC; cleared native HEK293 lysate (100 mM sodium phosphate pH 8.0, 100 mM NaCl, 1 % Triton X-100) on HiLoad 16/600 Superdex 200; fractions blotted for endogenous FAM136A

B1: FAM136A (natural protein)
chain: not shown
notes: FAM136A, endogenous in HEK293 cells; soluble protein of the mitochondrial intermembrane space; also called endogenous FAM136A; source: endogenous, HEK293 lysate
- stoichiometry N: ~2
